In the nanobody polyreactivity screen of Harvey et al. (2022):

Test: yeast display, Sf9 membrane polyspecificity reagent, FACS + sequencing; frameworks hold sequencing errors
Procedure, shortened: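 After 36–48 hours of galactose induction, yeast (Saccharomyces cerevisiae BJ5465) displaying a synthetic nanobody library were stained at 4 °C for 1 hour with 10% biotinylated, detergent-solubilized Sf9 membrane reagent. Streptavidin microbeads enriched the stained cells before FACS sorting into low and high (top ~1%) gates on anti-HA and streptavidin fluorescence. Each clone's polyreactivity label reflects its gate of origin.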

| Sequence | polyreactivity (PSR sort gate) |
| --- | --- |
| QVQLVESGGGLVQAGGSLRLSCAASGFIFSPYAMGWYRQAPGKERELVAAISSGGSTYYADSVKGRFTISRDNAKNTVYLQMNSLKPEDTAVYYCAASWGRRKPRMDYWGLGTQVTVSS | high polyreactivity |
| QVQLVESGGGLVQAGGSLRLSCAASGFIFSPYVMGSYRQAPGKERELVAAISSIGGSTYYADSVKGRFTISRDNAKKTVYLQMNSLKPEDTAVYYCADSVYYYASRYDYWGQGTQVTVSS | low polyreactivity |
| QVQLVESGGGLVQAGGSLRLSCAASGFIFSQNTMGWYRQAPGKERELVAAISKSGGTTYYADSVKGRFTISRDNAKNTVYLQMNSLKPEDTAVYYCARDKGYVSYRYNYWGQGTQVTVSS | high polyreactivity |
| QVQLVESGGGLVQAGGSLRLSCAASGFIFSRNAMGWYRQAPGKERELVAAISSTGGITYYADSVKGRFSISRDNAKNTVYLQMNSLKPEDTAVYYCAACFYGYARHTWYNYWGQGTQVTVSS | high polyreactivity |
| QVQLVESGGGLVQAGGSLRLSCAASGFIFSRYAMGWYRQAAGKERELVAAISYSGSSTYYADSVKGRFTISRDNAKNTVFLQMNSLKPEDTGVYYCNAVTQITGSSDGDYWGQGTQVTVSS | high polyreactivity |
| QVQLVESGGGLVQAGGSLRLSCAASGFIFSRYAMGWYRQAPGKERELVAAISIGGSTYYADSVKGRFTISRDNAKNTVYLQMNSLKPEDTAVYYCAVDYRHSSSWNAGPWEMYYWGQGTQVTVSS | low polyreactivity |
| QVQLVESGGGLVQAGGSLRLSCAASGFIFSRYFMGWYRQAPGKERELVAAISWNVGSTYYADSVKGRFTISRDNAKNTVYLQMNSLKPEDTAVYYCAARDRRSVTMDYWGHGTQVTVSS | high polyreactivity |
| QVQLVESGGGLVQAGGSLRLSCAASGFIFSSHAMGWYRQAPGKERELVAAISRSGGRTYYADSVKGRFTISRDNAKNTVYLQMNSLKPEDTAVYYCAAKRWWQYYWGQGTQVTVSS | high polyreactivity |
| QVQLVESGGGLVQAGGSLRLSCAASGFIFSSNAMGWYRQAPGKEREFVAAISFRGGTTYYADSVKRRFTISRDNAKNTVYLQLNSLKPEDTAVYYCNAVRWRSGRWWWYDYWGQGTQVTVSS | low polyreactivity |
| QVQLVESGGGLVQAGGSLRLSCAASGFIFSSNAMGWYRQAPGKERELVATISSDGSTNYADSVKGRFTISRDNAKNTVYLQMNSLKPEDTAVYYCAADLSLTIGTWTVLDTKYDYWGQGTQVTVSS | low polyreactivity |
| QVQLVESGGGLVQAGGSLRLSCAASGFIFSSNDMGWYRQAPGKERELVAAIDYSGGSTYYADSVKGRFTISRDNAKNTVYLQMNSLKPEDTAVYYCAATVYNPTDYYSPYYYWGQGTQVTGSS | low polyreactivity |
| QVQLVESGGGLVQAGGSLRLSCAASGFIFSSNTMGWYRQAPGKERELVADITSGARTNYADSVKGRFTISRDNAKNTVYLQMNSLKPEDTAVYYCAAYPHYIYFTWYPRYTYGYWGQGTQVTVSS | low polyreactivity |
| QVQLVESGGGLVQAGGSLRLSCAASGFIFSSYAMGWYRQAPGKEREFVASISASGGTTYYADSVKGRFTISRDNAKNTVYLQMNSLKPEDTAVYYCAAPWLDAEDYWGQGTQVTVSS | high polyreactivity |
| QVQLVESGGGLVQAGGSLRLSCAASGFIFSSYAMGWYRQAPGKEREFVAVISTGGGSTYYADSVKGRFTISRDNAKITVYLQMNSLKPEDTAVYYCAAKLYDSGGRYWYDYWGQGTQVTVSS | high polyreactivity |
| QVQLVESGGGLVQAGGSLRLSCAASGFIFSSYAMGWYRQAPGKERELVAAISRSGGRTYYADSVKGRFTISRDNAKNTVYLQMNSLKPEDTAVYYCAAKWLGTAGDDYWGQGTQVTVSS | high polyreactivity |
| QVQLVESGGGLVQAGGSLRLSCAASGFIFSTYAMGWYRQAPGKERELVSAISCSTGSTYYADSVKGRFTISRDNAKNTVYLQMNSLKPEDTAVYYCNALRRPSTEGRDYWGQGTQVTVSS | high polyreactivity |
| QVQLVESGGGLVQAGGSLRLSCAASGFIFSVNAMGWYRQAPGKERELVAAISTNTGRTYYADSVKGRFTISRDNAKNTVYLQMNSLKPEDTAVYYCAADGPTYWAVRGDYWGQGTQVTVSS | low polyreactivity |
| QVQLVESGGGLVQAGGSLRLSCAASGFIFSVNTMGSYRQAPGKERELVAAISGSGGSTYYADSVKGRFTISRDNAKNTVYLQMNSLKPEDTAVYYCAARYTVTYDYWGQGTQVTVSS | high polyreactivity |
| QVQLVESGGGLVQAGGSLRLSCAASGFIFSVYAMGWYRQAPGKEREFVAAIRWSGGSTYYADSVKGRFTISRDNAKNTVYLQMNSLKPEDTAVYYCAARARDLYGYWGQGTQVTVSS | high polyreactivity |
| QVQLVESGGGLVQAGGSLRLSCAASGFIFSVYAMGWYRQAPGKERELVAAITESGGSTYYADSVKGRFTISRDNAKNSVYLQMNSLKPEDTAVYYCAAAIRPYEYEYWGQGTQVTVSS | low polyreactivity |
| QVQLVESGGGLVQAGGSLRLSCAASGFIFSVYAMGWYRQAPGTEREFVAAIRWSGGSTYYADSVKGRFTISRDNAKNTVYLQMNSLKPEDTAVYYCAARARDHYGYWGQGTQVTVSS | high polyreactivity |

| Sequence | polyreactivity (PSR sort gate) |
| --- | --- |
| QVQLVESGGGLVQAGGSLRLSCAASGFIFSVYTMGWYRQAPGKERELVASITWSGGDTYYADSVKGRFTISRDNAKNTVYLQMNSLKPEDTAVYYCNVDAGFHDSYHAWNLRYDYWGQGTQVTVSS | low polyreactivity |
| QVQLVESGGGLVQAGGSLRLSCAASGFIFSWNAMGWYRQAPGKERELVAVITWSGSRTNYADSVKGRFTISRDNAKNTVYLQMNSLKPEDTAVYYCATKGPVYTSSRPVSGGAYNYWGQGTQVTVSS | low polyreactivity |
| QVQLVESGGGLVQAGGSLRLSCAASGFIFSYYALGWYRQATGKERELVAAITYSGVRTYYADSVKGRFTISRDNAKNTVYLQMNSLKPVDTAVYYCNTKHRTKPTRPDDYWGQGTQVTVSS | high polyreactivity |
| QVQLVESGGGLVQAGGSLRLSCAASGFIFSYYAMGWYRQAPGKERELVAAISSGGSTYYADSVKGRFTISRDNAKNTVYLQMNSLKPEDTAVYYCAAAIWYIKLYFVRRTEHGYWGQGTQVTVSS | low polyreactivity |
| QVQLVESGGGLVQAGGSLRLSCAASGFIFSYYAMGWYRQAPGKERELVATITSGGSTNYADSVKGRFTISRDNAKNTVYLQMNSLKPEDTAVYYCNALPGVSHTQYDRVGYWGQGTQVTLSS | high polyreactivity |
| QVQLVESGGGLVQAGGSLRLSCAASGFIFSYYAMGWYRQAPGTERELVAVITFSVGSPYYADSVKGRFTISRDNAQNTVYLLMNSLKPEDTAVYYCAARSYACAKRAYYYWGQGTQVTVSS | high polyreactivity |
| QVQLVESGGGLVQAGGSLRLSCAASGFIFSYYTMGWYRQEPGTERELVADISWSGGSSYYADSVKGRFTISRDNAKNTVYLQMNSLKPEDTAVYYCNAEGWTAFLDQYDYWGQGTQVTVSS | high polyreactivity |
| QVQLVESGGGLVQAGGSLRLSCAASGFIFSYYVMGWYRQAPGKERELVAAINESGGRTYYADSVKGRFTISRDNAKNTVYLQMNSLKPEDTAVYYCAASVLNKIQGYRDYYWGQGTQVTVSS | low polyreactivity |
| QVQLVESGGGLVQAGGSLRLSCAASGFIFSYYVMGWYRQAPGKERELVAAINESGGRTYYADSVKGRFTISRDNAKNTVYLQMNSLKPEDTAVYYCATIPGYVYYWQYKYDYWGQGTQVTVSS | low polyreactivity |
| QVQLVESGGGLVQAGGSLRLSCAASGFIFTDNVMGWYRQAPGKERELVAAISRGGGSTYYADSVKGRFTISRDNAKNTDYLQMNSLKPEDTAVYYCAAPTARSRSERDYWGQGTQVTVSS | high polyreactivity |
| QVQLVESGGGLVQAGGSLRLSCAASGFIFTDYTMGWYRQAPGKERELVAAIDSSGGGTHYADSVKGRFTISRDNAKNTVYLQMNSLKPEDTAVYYCAAADYLIQFWYQYDYWGQGTQVTVSS | low polyreactivity |
| QVQLVESGGGLVQAGGSLRLSCAASGFIFTIYAMGWYRQAPGKERELVAAITWNGGRTYYADSVKGRFTISRDNAKNTVYLQMNSLKPEDTAVYYCAARYGRAYDYWGQGTQVTVSS | high polyreactivity |
| QVQLVESGGGLVQAGGSLRLSCAASGFIFTLYAMGWYRKAPGKEREFVAAISWSDGSTTYADSVKGRFTISRDNAKNTVYLQMNSLKPEDTAVYYCNTSYIIWYDSWGQGTQVTVSS | low polyreactivity |
| QVQLVESGGGLVQAGGSLRLSCAASGFIFTRYAMGWYRQAPGKERELVAAIRWRGSSTYYADSVKGRFTISRDNAKNTVYLQMNSLKPEDTAVYYCAAQPSRSTYLAPSRDHWGQGTQVTVSS | low polyreactivity |
| QVQLVESGGGLVQAGGSLRLSCAASGFIFTRYAMGWYRQAPGKERELVAAITRSGGRTYYADSVKGRFTISRDNAKNTVYLQMNSLKPEDTAVYYCAAEGSVGLYGLIMHYWGLGTQVTVSS | high polyreactivity |
| QVQLVESGGGLVQAGGSLRLSCAASGFIFTRYAMGWYRQAPGKERELVAGINRSGSRTYYADSVKGRFKISRDNAKNTVYLQMNSLKPEDTAVYYCATDTWYLYSTLDYWGQGTQVTVSS | high polyreactivity |
| QVQLVESGGGLVQAGGSLRLSCAASGFIFTTYAMGWYRQAPGKERELVAAISTSGGRTYYADSVKGRFTISRDNAKNTVYLQMNSLKPEDTAVYYCNTYSYYSYDWGQGTQVTVSS | high polyreactivity |
| QVQLVESGGGLVQAGGSLRLSCAASGFIFTWYAMGWYRQAPGKEREVVAGISRSGGRTYYADSVKGRFTISRDNAKNTVYLQMNSLKPEDTAVYYCNAVLVGYRPYREFDHWGQGTQVTVSS | high polyreactivity |
| QVQLVESGGGLVQAGGSLRLSCAASGFIFTYNAMGWYRQAPGKERELVAAMNSGGITYYADSVKGRFTISRDNAKNPVYLQMNSLKPEDTAVYYCAKRRQIGWITYDYCGQGTQVTVSS | low polyreactivity |
| QVQLVESGGGLVQAGGSLRLSCAASGFIFTYYAMGWYRQAPGKERELVAAISSRGTSTYYADSVKGRFTISRDNAKNTVYLQMNSLKPEDTAVYYCAAGKPKIPDDDYWGQGTQVTVSS | high polyreactivity |
